Test results reported in the nanobody polyreactivity screen of Harvey et al. (2022).

Assay: yeast display, Sf9 membrane polyspecificity reagent, FACS + sequencing; frameworks hold sequencing errors
Summary of the method: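 Sorting gates, low and high (top ~1%), were placed on anti-HA fluorescence to track expression and on streptavidin fluorescence to track reagent binding. A clone's polyreactivity label is taken from the gate it came out of. The reagent was 10% biotinylated, detergent-solubilized Sf9 membrane, applied for 1 hour at 4 °C to galactose-induced yeast display cells.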

Sequence | polyreactivity (PSR sort gate)
QVQLVESGGGLVQAGGSLRLSCAASGRTIRYNAMGWYRHAPGKERELVAAITGSGGSTYYADSVKGRFTISRDNAKNTVYLQMNSLKPEDTAAYSCNAVGIWFPIRLIVPYDYWGQGTQVTVSS | low polyreactivity
QVQLVESGGGLGQAGGSLRLSCAASGIIFYPNAMGWYRQAPGKERELVAAISCRSGSTYYADSVKGRITISRDNEKNTVYLQMNSLKPEDTSVYYCAADRRRSYIWRYDYWGQGTQVTVSS | low polyreactivity
QVQLVESGGGLVQAGGSLRLSCADSGLILHKYAMGWYRQAPGKDRELVASINSGANTNYADSVKGRFTISRDNAKNTVYLQMNSLKPEDSAEYYCNADPGFRSGEYGYSSFDYWGQGTQVTVSS | low polyreactivity
QVQLVESGGGLVQAGGSLRLSCASSGSIFARYALGWYIQAPGKQRELVADINSTVSTNYADSVKGRFTISRDNAKNPVYLQMNSLKPEVTAVSYCAVDIVRGGRDSWGQGTQVTVSS | low polyreactivity
QVHLVESGGGLVQAGGSLRLSCAASGRIFKDNAMGWYRQAPGKERELVATIDSGGDTNYADSVKGRFTISRDNAKNTVYLQMNSLKPEDTAVYYCNTEGFLSAVYAFGYWGQGTQVTVSS | low polyreactivity
QVQLVESGGGLVQAGGSLRLSCAASGFISRTNAMGWSRQEPGKERELVAGINSGGNTYYADSVKGRFTISRDNAKNTVYLQMNSLKPEDTADYYCAALWSLRRSRPRFDYWGQGTQVTVSS | high polyreactivity
QVQLVESGGGLVQAGCSLRLSCAASGRIFNDYAMGWYRQAPGKERELVAGISRRGGSTSYADSVKGRFTISRDNAKNTDYLQMNSQKAEDTAVYYCNADYWYDYYSTEYDYWGQGTQVTVSS | low polyreactivity
QVQLVESGGGLVQAGGSLRLSCAASGRIFTHNAMGWYRQAPGKEREVVAAISYSGVSTYYADSVKGRFTISRDNAKNTVYLQRNSLNTDDTAVYFCARRYWYPDAFYRYDYWGQGTPVTVSS | low polyreactivity
QVQLVESGGGLVQAGGSLRLSCAASGRTFAYNAMGWYRQAPGKEREFVAGISRSGGSTYYADSVKGRFTISRDNAKNTVYLQMNSLKPEDTAVYYCAAQFYALPNVGTKYYSWGQGTQVTVSS | low polyreactivity
QVQLVESGGGLVQAGGSHRLSCAASGSIFRSNTMGWYRQAPGKERELVAAITWRRGSTYYADSVKGRFTISRDNAKNTVYLQMNSLKPEDTAVYDCNALYVSRDDYWGQGTQVTVSS | high polyreactivity
QVQLVESGGGLVQAGGSLRLSCAASGIIFWYNAMGWYRQAPWKERELVASISTGGRTYYADSVKGRFTISRDNAKNTVYLQMNSLKPEDTAVYYCAAASRVGFLYYYWGQGTQVTVSS | low polyreactivity
QVQHVESGGGLVQAGGSLRLSCAASGRIIPGNAMGWYRQAPGKERDLVAAISYGGGSTYYADSVKGRFTISRDNAKNTVYLQMNSLKPEATAVYYCNAGWIRNYGFSIVTYDYWGQGTQVTVSS | low polyreactivity
QVQLGESGGGLVQAGGSLRLSCAASGGILYWYAMGWYRQAPGKERELVAAIDGTGGSTYYADSVKGRFTISRDNAKNTVYFQMYSLRPEDTEVYYCDATRPSIVTGNVKNGYWGHGTQVTVSS | low polyreactivity
QVQLVESGGGLVQAGGSLRLSCAATGRTFYPYVMGWYRQAAGKERDLVASITDSGGNTYYADSVKGRFTISRDHAKNTVYLQMNSLKPEDTAVYYCNASFYYPSRRGTFQYNYWGHGTQVTVSS | low polyreactivity
QVQLVESGGGLVQAGGSLRLSCAASGTFTVNTMGCYRQAPGKERELVAAISTGDTTTYADSVKGRFTISRDNAKNTVYLQMNSLKPEDTAVYYCNVDIGVYAYESDYWGQGTQVTVSS | low polyreactivity
QVQLVESGGGLVQAGGSLRLSCAASGSTFGTNAMGWYRQAPGKERELVAAITKSGGSTYADSVKGRFTISRDNAKNTVYLQMNSLKPEDTAVYYCAAPNRYSVPMYYWGQGTQVTVSS | low polyreactivity
QVQLVESGGGLVQAGGSLRLSCAASGLTFRTYAMGWYRQAPGKERELVAAISRSGSTTYYADSVKGRFTISRDNAKNTVYLQMNSLKPEDTAVYYCAAVGIRWLEYWGQGTQVTVSS | high polyreactivity
QVKLVESGGGLVQAGGSLRLSCAASGFTIQRYAMGWYRQAPGKERELVAAITSGGSTYYADSVKGRFTISRDNAKNTVYLQMNSLKPEDTAVYYCATRAVWSSWGRRYDSWGQGTQVTVSS | high polyreactivity
QVQLVESGGGLVQAGGSLRLSCAASGSTFHSYVMGWYREAPGIERELVAAITSRGGSTNYADSVKGRFTISRDNAKNTVYFQMNSLKPEDTAVYYCAAEWLYPLDGGYPRPMDYWGQGTQVTVSS | low polyreactivity
QVQLVESGGGLVQAGGSLRLSCAASGRIFGYYAMGWYRQAPGKERELVAAISYSGGRTYYADSVKGRFTISRDNAKNTVYLQMNSLKPEDTAVYYCNARSRSYKWYTRTGYGYDYWGQGTQVTVSS | high polyreactivity
